Reference: the supplement of paper PMC12764529
± gives the half width of the 95% confidence interval.

Experiments:
[1] = folding stability dG unfold from trypsin proteolysis; higher = more stable
Summary of the method: (§1)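 Only designs with AlphaFold2 dimer inter-PAE above 15 were retained; each was a mini-protein under 80 residues with no cysteine, in a PA-tagged cDNA display construct. After digestion with trypsin and chymotrypsin and sequencing, K50 was inferred by Bayesian fitting of counts, and unfolding free energy was derived per protease or combined against a sequence-predicted unfolded-state K50 and a shared folded-state K50.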

[2] = folding stability dG unfold from chymotrypsin proteolysis; higher = more stable
Summary of the method: as §1

[3] = folding stability dG unfold (combined trypsin and chymotrypsin); higher = more stable
Summary of the method: as §1

Row | Sequence | folding stability dG unfold [1] [kcal/mol] | folding stability dG unfold [2] [kcal/mol] | folding stability dG unfold [3] [kcal/mol]
1 | SAGGSAGGSAGGKYKIKEIKVEEVDGKKYVKLVIYDKNGKPVKTIVMSLEELKKLPPELLSAGGSAGGSAGG [r7_263_TrROS_Hall] | 1.55 ± 0.041 | 2.37 ± 0.12 | 1.89 ± 0.22
2 | SAGGSAGGSAGGLGLDLPVFPVKTTTSSSTVPLPNGQTVTVTTTTTTFPGSSSTTTTTTGSAGGSAGGSAGG [r17_59_JUSTAS] | 1.02 ± 0.031 | 1.46 ± 0.037 | 1.31 ± 0.037
3 | SAGGSAGGSAGGLGPDEKPKVKYLALIYDPETGEVTVVPADKLDKVLKETDASVSLFPVSAGGSAGGSAGGS [r10_1121_TrMRF] | 0.351 ± 0.1 | 0.401 ± 0.1 | 0.565 ± 0.2
4 | SAGGSAGGSAGGLKPGEKLVFKTETKTLKLKAKVFNKDTGEEFEVEVELTVTRIEVYPLSAGGSAGGSAGGS [r10_1116_TrROS_Hall] | 3.04 ± 0.31 | 4.96 ± 0.22 | 4.79 ± 0.33
5 | SAGGSAGGSAGGLPPGDKLKPVASWPIWAMFPVTYKGPDGELPFNIMIPIRIEIWKPDDSAGGSAGGSAGGS [r10_758_TrROS] | 2.23 ± 0.087 | 2.674 ± 0.022 | 2.49 ± 0.1
6 | SAGGSAGGSAGGMATTTTKIEIYPGTGKVKTTTTVTDPSTGTTTTTTTTEETSLEELTSSAGGSAGGSAGGS [r10_173_JUSTAS] | -0.0031 ± 0.05 | 0.657 ± 0.082 | 0.345 ± 0.13
7 | SAGGSAGGSAGGMEEIRELLEKAKKEGLESITVTVNDPAEATEVRAYAEEKGIPVTINASAGGSAGGSAGGS [r10_307_JUSTAS] | 0.415 ± 0.048 | -1.01 ± 0.56 | -0.0348 ± 0.16
8 | SAGGSAGGSAGGMEFELEDGGYVKVELELSEDGELVARVEFFNENGEPVAEIEVPLEEILSAGGSAGGSAGG [r7_660_TrMRF] | 1.63 ± 0.12 | 1.76 ± 0.062 | 1.76 ± 0.13
9 | SAGGSAGGSAGGMEIEFEKAKFEIEEIDPEKGKIKVKFPGLEKEFEIEFDKKGKIVKISGSAGGSAGGSAGG [r7_553_TrMRF] | 0.228 ± 0.057 | 0.959 ± 0.036 | 0.612 ± 0.12
10 | SAGGSAGGSAGGMEVEYNPEELSPESEVTITVTLPGGEKVELKAKIYTNPDGSLSYELESAGGSAGGSAGGS [r10_390_JUSTAS] | 0.697 ± 0.047 | 1.58 ± 0.035 | 1.3 ± 0.053
11 | SAGGSAGGSAGGMEVKVEEFVENGKPVVREFYPDSIKVTTYTFDENGNVTEKKEYVIPKESAGGSAGGSAGG [r7_722_JUSTAS] | 0.413 ± 0.061 | 0.92 ± 0.15 | 0.691 ± 0.17
12 | SAGGSAGGSAGGMEVVIPLDKNERYLAYVLGEPKFVEFDPEKGYLVIPNTPPENVIVVKYSAGGSAGGSAGG [r7_200_TrMRF] | 0.248 ± 0.05 | 0.418 ± 0.15 | 0.325 ± 0.1
13 | SAGGSAGGSAGGMFKTYDSLEDVKKNETGDGAKGKVFVVAPIPELENAVLVLVEIRPPDSAGGSAGGSAGGS [r10_126_TrMRF] | -0.219 ± 0.069 | 0.504 ± 0.11 | 0.231 ± 0.088
14 | SAGGSAGGSAGGMFLIKLPNGKVLLFESEEEAKAALEELTGKPVDLENLEIVPLPEEELSAGGSAGGSAGGS [r10_62_TrROS_Hall] | 3.65 ± 0.14 | 3.14 ± 0.045 | 3.3 ± 0.11
15 | SAGGSAGGSAGGMFYIKNEKGEVFPFTSLEEFLKQLEEKTGKPVKLNNIVIYPAAPHSLSAGGSAGGSAGGS [r10_62_TrMRF] | 1.04 ± 0.042 | 1.81 ± 0.15 | 1.7 ± 0.27
16 | SAGGSAGGSAGGMGINVTVSEEVSVLPDPSVVRVTTTTKTPDGTTTVTEEVIPGPEELESAGGSAGGSAGGS [r10_1221_JUSTAS] | -0.15 ± 0.045 | 1.47 ± 0.099 | 1.2 ± 0.075
17 | SAGGSAGGSAGGMIIEKKTVEKLPDGTVKVTVSIITVNDDGKTETIKTETKIIPLSELLGSAGGSAGGSAGG [r7_521_JUSTAS] | 2.31 ± 0.11 | 2.25 ± 0.1 | 2.18 ± 0.11
18 | SAGGSAGGSAGGMILRDPNRDIWTADFPDSSGNLVSSREFPPGEIEEVLAEGNVSAEVLPSAGGSAGGSAGG [r11_159_JUSTAS] | 0.362 ± 0.015 | 0.297 ± 0.059 | 0.315 ± 0.043
19 | SAGGSAGGSAGGMIVLKDPDPARLEARAEELRAELEAAGRELPPDVEIEVLEAEPDPALLSAGGSAGGSAGG [r7_965_JUSTAS] | -0.194 ± 0.21 | -0.568 ± 0.37 | -0.279 ± 0.29
20 | SAGGSAGGSAGGMKIKITVEVFDPNTGKVLKTEEFTSLEEAEKKVKEEDPNKVKVTVKEESAGGSAGGSAGG [r7_201_JUSTAS] | 0.805 ± 0.056 | 1.71 ± 0.032 | 1.33 ± 0.077
21 | SAGGSAGGSAGGMKILSVEEDAPPDYVTVTELTVDSEGNKKIITTTIPIEPPPEVSPSLISAGGSAGGSAGG [r7_873_JUSTAS] | 1.15 ± 0.039 | 1.45 ± 0.1 | 1.24 ± 0.17
